We go through 24 molecules from patent US20260116920A1 (PEPTIDREAM, published 2026).

Starred links: 1 amine or outer side, 2 acyl side, 3 side chain; linkers in the order of their positions; H or OH if unused. Positions of bridges follow the written chain, without caps; N, C: chain ends. Non-standard residues stand in square brackets, D forms with d. Primed or numbered codes have the meaning given here. No end group written: not given here. E(PEG8Me) = (S)-30-amino-27-oxo-2,5,8,11,14,17,20,23-octaoxa-26-azahentriacontane-31-oic acid, COCCOCCOCCOCCOCCOCCOCCOCCNC(=O)CC[C@H](N[*:1])C(=O)[*:2]; E(PEG4Me) = (S)-18-amino-15-oxo-2,5,8,11-tetraoxa-14-azanonadecane-19-oic acid, COCCOCCOCCOCCNC(=O)CC[C@H](N[*:1])C(=O)[*:2]; Phe(4-OMe)(3) = (S)-2-amino-3-(4-methoxyphenyl)propanoic acid (source code F4OMe), COc1ccc(C[C@H](N[*:1])C(=O)[*:2])cc1; F4aao = (S)-2-amino-3-(4-(carboxymethoxy)phenyl)propanoic acid, O=C([C@H](Cc1ccc(OCC(=O)[*:3])cc1)N[*:1])[*:2]; Phe(4-OMe)″ = (S)-2-amino-3-(4-methoxyphenyl)propanoic acid (F4OMe), COc1ccc(C[C@H](N[*:1])C(=O)[*:2])cc1; Phe(4-OMe) = F4OMe = (S)-2-amino-3-(4-methoxyphenyl)propanoic acid, COc1ccc(C[C@H](N[*:1])C(=O)[*:2])cc1; E(NHdPEG1Me) = N5-(1,3-dimethoxypropan-2-yl)-L-glutamine, COCC(COC)NC(=O)CC[C@H](N[*:1])C(=O)[*:2]; Trp(1-CH2CO) = O=C([C@H](Cc1cn(CC(=O)[*:3])c2ccccc12)N[*:1])[*:2]; Ala(1-CH2CO2H-4-piperidyl) = N[C@@H](CC1CCN(CC(=O)O)CC1)C(=O)O; Trp(5-Cl) = N[C@@H](Cc1c[nH]c2ccc(Cl)cc12)C(=O)O; Nle(6-morpholino) = N[C@@H](CCCCN1CCOCC1)C(=O)O; Phe(3-COOH) = N[C@@H](Cc1cccc(C(=O)O)c1)C(=O)O; NMePhe(3-Cl) = CN[C@@H](Cc1cccc(Cl)c1)C(=O)O; NMePhe(4-F) = CN[C@@H](Cc1ccc(F)cc1)C(=O)O; PEG8 = NCCOCCOCCOCCOCCOCCOCCOCCOCCC(=O)O; Lys(N3) = [N-]=[N+]=NCCCC[C@H](N)C(=O)O; NMeY = CN[C@@H](Cc1ccc(O)cc1)C(=O)O; NMeR = CN[C@@H](CCCNC(=N)N)C(=O)O; NMeF = CN[C@@H](Cc1ccccc1)C(=O)O; 3Pal = N[C@@H](Cc1cccnc1)C(=O)O; 4Pal = N[C@@H](Cc1ccncc1)C(=O)O

In test [1] the target is T1, human transferrin receptor (hTfR) (human, UniProt P02786 89-760).
T1 construct: used as 0.5 uM hTfR dimer solution, immobilised on an NTA sensor chip (Ni capture plus EDC/NHS coupling); also called human TfR; TfR1
T1 sequence (P02786 89-760 limits assumed): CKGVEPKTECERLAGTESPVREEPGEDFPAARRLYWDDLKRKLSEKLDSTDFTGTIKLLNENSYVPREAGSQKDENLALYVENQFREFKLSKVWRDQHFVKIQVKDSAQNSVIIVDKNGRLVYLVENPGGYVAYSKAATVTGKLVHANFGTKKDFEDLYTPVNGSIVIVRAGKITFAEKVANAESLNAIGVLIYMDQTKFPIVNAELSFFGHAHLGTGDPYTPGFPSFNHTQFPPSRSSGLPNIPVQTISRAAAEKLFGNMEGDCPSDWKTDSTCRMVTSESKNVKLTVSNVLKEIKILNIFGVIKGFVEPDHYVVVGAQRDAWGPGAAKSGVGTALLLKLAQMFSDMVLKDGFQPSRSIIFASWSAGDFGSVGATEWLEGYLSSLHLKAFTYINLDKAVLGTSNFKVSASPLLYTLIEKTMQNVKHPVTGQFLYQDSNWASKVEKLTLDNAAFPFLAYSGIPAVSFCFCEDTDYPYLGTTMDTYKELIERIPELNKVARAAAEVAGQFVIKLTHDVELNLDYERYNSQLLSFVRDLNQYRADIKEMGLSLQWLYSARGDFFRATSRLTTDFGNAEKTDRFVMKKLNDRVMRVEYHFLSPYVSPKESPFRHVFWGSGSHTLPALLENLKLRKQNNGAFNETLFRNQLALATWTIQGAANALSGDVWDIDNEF
In words: SPR; A = KD <1 nM. The method, then: NTA sensor chip (Global Life Sciences Technologies Japan K.K.) was inserted into BiacoreT200 (Global Life Sciences Technologies Japan K.K.), then the priming operation was performed three times by using running buffer containing: 10 mM HEPES pH 8.0 (Nacalai Tesque, Inc.), 150 mM NaCl (Nacalai Tesque, Inc.), 0.05% Tween 20 (Nacalai Tesque, Inc.), 0.1% BSA (SIGMA-ALDRICH) and 1.0% DMSO (FUJIFILM Wako Pure Chemical Corporation), and equilibrated at a flow rate of 30 μL/min. 350 mM EDTA solution was reacted at a flow rate of 10 μL/min for 60 seconds, 0.5 mM […] solution (Kishida Chemical Co., Ltd.) was reacted at a flow rate of 10 μL/min for 60 seconds, and then the NTA sensor chip was washed with 3 mM EDTA solution (Nacalai Tesque, Inc.) at a flow rate of 10 μL/min for 60 seconds. After mixing 50 μL each of 60 mM EDC solution (Global Life Science Technologies Japan K.K.) and 650 mM NHS solution (Global Life Science Technologies Japan K.K.), the reaction was carried out at a flow rate of 10 μL/min for 420 seconds. 150 μL of 0.5 μM hTfR dimer solution was prepared by dilution with running buffer and reacted at a flow rate of 10 μL/min for 300 seconds to immobilize hTfR on the NTA sensor chip. For the human transferrin receptor (hTfR), recombinant hTfR described in Example 2 of WO2018/124121 was used. After immobilization, capping was performed by reacting with 1.0 M ethanolamine solution (Global Life Sciences Technologies Japan K.K.) at a flow rate of 10 μL/min for 420 seconds. Peptide lysate prepared in DMSO solution to 10 mM was diluted with running buffer to be a final concentration of 10 μM peptide lysate, then peptide solutions of 100 nM, 50 nM, 25 nM, 10 nM, and 5 nM were prepared. Using the above samples, the kinetics of the peptide against hTfR was obtained by SPR measurement.
The kinetic evaluation model was single-cycle kinetics, and curve fitting was performed using Biacore T200 Evaluation Software Version 3.0 (Global Life Science Technologies Japan K.K.). The binding of the peptide to hTfR was evaluated by performing curve fitting on the obtained sensorgram by least squares method and obtaining the KD value.

Test [2] deals with T1, human transferrin receptor (hTfR). In words: SPR; B = KD 1-100 nM. The essentials: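 Recombinant hTfR dimer immobilised on Ni-NTA chip with EDC/NHS coupling; running buffer 10 mM HEPES pH 8.0, 150 mM NaCl, 0.05% Tween 20, 0.1% BSA, 1.0% DMSO. Peptides injected at 5–100 nM in single-cycle kinetics; KD from least-squares sensorgram fitting.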
In general terms: In SPR one partner is held on a chip, and binding of the other changes the refractive index at the surface.

B1: 894_0255 (peptide)
peptide: {CH2CO}-AV[NMePhe(4-F)]V[Trp(5-Cl)]NY[Phe(4-OMe)]IIRRFYC-NH2
modifications: thioether N-15; not fully specified (residue 14); also: linker PEG4c, place not given here
A word on the KD: it is the constant that tells how readily two partners part at equilibrium. A higher KD goes with weaker binding. Turning to B1, in test [1], the KD was < 1 nM. The same measure, in the same setting: the figure for {CH2CO}-AV[NMePhe(3-Cl)]V[Trp(1-CH2CO)]NY[F4aao]IIRRF[NMeY]C-NH2 (thioether N-15; also: linker G-de-de-de-ds-ds-KN3, attachment not given here) [894_3168] is < 1 nM.

B2: 894_3182 (peptide)
peptide: {CH2CO}-AV[NMePhe(3-Cl)]V[Trp(1-CH2CO)]NY[F4aao]IIRRF[NMeY]CG[PEG8][Lys(N3)]-NH2
modifications: thioether N-15
SMILES: CC[C@H](C)[C@@H]1NC(=O)[C@H](Cc2ccc(OCC(=O)O)cc2)NC(=O)[C@H](Cc2ccc(O)cc2)NC(=O)[C@H](CC(N)=O)NC(=O)[C@H](Cc2cn(CC(=O)O)c3ccccc23)NC(=O)[C@H](C(C)C)NC(=O)[C@H](Cc2cccc(Cl)c2)N(C)C(=O)[C@H](C(C)C)NC(=O)[C@H](C)NC(=O)CSC[C@@H](C(=O)NCC(=O)NCCOCCOCCOCCOCCOCCOCCOCCOCCC(=O)N[C@@H](CCCCN=[N+]=[N-])C(N)=O)NC(=O)[C@H](Cc2ccc(O)cc2)N(C)C(=O)[C@H](Cc2ccccc2)NC(=O)[C@H](CCCNC(=N)N)NC(=O)[C@H](CCCNC(=N)N)NC(=O)[C@H]([C@@H](C)CC)NC1=O
In test [2], B2 registered a KD of 1 to 100 nM.

B3: 894_0251 (peptide)
peptide: {CH2CO}-AV[NMeF]V[Trp(5-Cl)]NY[Phe(4-OMe)]IIRRFYC-NH2
modifications: thioether N-15; not fully specified (residue 14); also: linker PEG4c, place not given here
As for B3, the dissociation constant (KD) in test [1] is < 1 nM. In turn, Ac-AV[NMePhe(3-Cl)]VWNY[3Pal]IIQQ[4Pal][NMeY]C (thioether (positions not given here); not fully specified (C-terminus, bridges)) [894_0327] showed a KD in test [2] of 1 to 100 nM. Same read-out and setting: the result for {CH2CO}-AV[NMeF]VWNY[Phe(4-OMe)]II[NMeR]RFYC-NH2 (thioether N-15; not fully specified (residue 14); also: linker PEG4c) [894_0285] reads 1 to 100 nM. {CH2CO}-AV[NMePhe(3-Cl)]V[Trp(1-CH2CO)]NY[Phe(4-OMe)″]IIRRF[NMeY]C-NH2 (thioether N-15; also: linker PEG4c, place not given here) [894_0391]: the equilibrium dissociation constant (KD) in test [1] was < 1 nM. For the molecule Ac-AV[NMePhe(3-Cl)]V[Trp(1-CH2CO)]NY[F4aao]IIRR[Phe(3-COOH)][NMeY]C (thioether (positions not given here); not fully specified (C-terminus, bridges)) [894_0342], the KD in test [2] was in the range of 1 to 100 nM. {CH2CO}-AV[NMePhe(3-Cl)]VWNY[F4aao]IIRRF[NMeY]C-NH2 (thioether N-15; also: linker PEG4c, place not given here) [894_0392]: the KD in test [1] was < 1 nM.

{CH2CO}-AV[NMePhe(3-Cl)]V[Trp(1-CH2CO)]NY[F4aao]IIRRFYC-NH2 (thioether N-15; not fully specified (residue 14); also: linker PEG4c) [894_0295] returned a KD in test [2] of 1 to 100 nM.

With {CH2CO}-AV[NMePhe(3-Cl)]VWNY[Phe(4-OMe)]IIRRFYC-NH2 (thioether N-15; not fully specified (residue 14); also: linker PEG4c) [894_0280], in test [1], the KD was < 1 nM. On the same count and under the same terms, the result for {CH2CO}-AV[NMePhe(3-Cl)]VWNY[F4aao]II[E(PEG8Me)]RF[NMeY]C-NH2 (thioether N-15; also: linker PEG4c, place not given here) [849_0397] reads < 1 nM; that for {CH2CO}-AV[NMePhe(3-Cl)]VWNY[Phe(4-OMe)]IIRRYYC-NH2 (thioether N-15; not fully specified (residue 14); also: linker PEG4c) [894_0291], < 1 nM.

B4: 894_0254 (peptide)
peptide: {CH2CO}-AV[NMePhe(4-F)]V[Trp(5-Cl)]NYYIIRRFYC-NH2
modifications: thioether N-15; not fully specified (residue 14); also: linker PEG4c, place not given here
For B4, the KD in test [1] is < 1 nM.

B5: 894_0250 (peptide)
peptide: {CH2CO}-AV[NMeF]V[Trp(5-Cl)]NYYIIRRFYC-NH2
modifications: thioether N-15; not fully specified (residue 14); also: linker PEG4c, place not given here
As for B5, the KD in test [1] was < 1 nM.

For the molecule {CH2CO}-AV[NMePhe(3-Cl)]V[Trp(1-CH2CO)]NY[F4aao]II[Nle(6-morpholino)][Nle(6-morpholino)]F[NMeY]C-NH2 (thioether N-15; also: linker PEG4c, place not given here) [894_0390], the binding result in test [1] is “binds”.

With {CH2CO}-AV[NMeF]V[Trp(5-Cl)]NY[Phe(4-OMe)]IIRRYYC-NH2 (thioether N-15; not fully specified (residue 14); also: linker PEG4c) [894_0289], the equilibrium dissociation constant (KD) in test [1] is < 1 nM. The same measure, in the same setting: the figure for {CH2CO}-AV[NMePhe(3-Cl)]VWNY[F4aao]II[E(NHdPEG1Me)]R[Phe(3-COOH)][NMeY]C-NH2 (thioether N-15; also: linker PEG4c, place not given here) [849_0399] is < 1 nM; for {CH2CO}-AV[NMePhe(3-Cl)]VWNY[Phe(4-OMe)]IIKRFYC-NH2 (thioether N-15; not fully specified (residue 14); also: linker PEG4c) [894_0281] it is < 1 nM.

B6: 894_3200 (peptide)
peptide: AVFVWNYYIIKRYYC
modifications: 3:MeF,5:MeW,14:MeY; linker G-ds-ds-ds-ds-ds-KN3; ClAc-1/C15 thioether ring; C-term NH2
For the molecule B6, the binding result in test [1] was “binds”. For the molecule {CH2CO}-AV[NMePhe(3-Cl)]V[Trp(1-CH2CO)]NY[F4aao]II[Ala(1-CH2CO2H-4-piperidyl)]RF[NMeY]C-NH2 (thioether N-15; also: linker PEG4c, place not given here) [894_0386], the binding result in test [1] is recorded as “binds”. As to {CH2CO}-AV[NMePhe(3-Cl)]V[Trp(1-CH2CO)]NY[F4aao]II[E(PEG4Me)][Nle(6-morpholino)]F[NMeY]C-NH2 (thioether N-15; also: linker PEG4c, attachment site not given here) [849_0404], the KD in test [1] is < 1 nM. The same measure, in the same setting: the result for {CH2CO}-AV[NMePhe(3-Cl)]V[Trp(1-CH2CO)]NY[Phe(4-OMe)(3)]IERRF[NMeY]C-NH2 (thioether N-15; also: linker G-de-de-de-ds-ds-KN3, attachment not given here) [894_3167] reads < 1 nM. As for {CH2CO}-AV[NMePhe(3-Cl)]VWNY[Phe(4-OMe)″]IIRR[4Pal][NMeY]C-NH2 (thioether N-15; also: linker PEG4c) [894_0317], in test [1], the KD is < 1 nM.
